# According to article PMC5735850 (The Plant journal : for cell and molecular biology, 2017):
# Substitutions are numbered along the chain they refer to. In names and notes the source's numbering stands.
# T1: AtFUT1 (Arabidopsis thaliana, UniProt Q9SWH5)
# T1 sequence (Q9SWH5 84-558 limits assumed): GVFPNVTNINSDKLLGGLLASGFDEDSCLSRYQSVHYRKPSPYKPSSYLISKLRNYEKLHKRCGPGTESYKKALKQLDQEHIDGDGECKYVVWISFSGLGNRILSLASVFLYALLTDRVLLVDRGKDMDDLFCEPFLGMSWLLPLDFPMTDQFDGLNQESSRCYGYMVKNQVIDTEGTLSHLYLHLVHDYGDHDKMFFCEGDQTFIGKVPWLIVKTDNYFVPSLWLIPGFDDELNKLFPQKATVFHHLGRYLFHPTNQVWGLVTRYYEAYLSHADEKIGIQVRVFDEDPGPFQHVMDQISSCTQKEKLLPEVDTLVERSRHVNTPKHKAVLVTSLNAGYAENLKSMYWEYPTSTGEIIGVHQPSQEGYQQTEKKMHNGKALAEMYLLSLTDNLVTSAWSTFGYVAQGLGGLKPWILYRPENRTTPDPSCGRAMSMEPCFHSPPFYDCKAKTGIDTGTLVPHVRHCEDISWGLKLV
# B1: AtFUT1 (Arabidopsis thaliana; Q452A) (protein)
# chain: T1 sequence (Q9SWH5 84-558 limits assumed) with Q369A
# B2: AtFUT1 (Arabidopsis thaliana; D550A) (protein)
# chain: T1 sequence (Q9SWH5 84-558 limits assumed) with D467A
# B3: AtFUT1 (Arabidopsis thaliana; H523A) (protein)
# chain: T1 sequence (Q9SWH5 84-558 limits assumed) with H440A
# B4: AtFUT1 (Arabidopsis thaliana; D300A) (protein)
# chain: T1 sequence (Q9SWH5 84-558 limits assumed) with D217A
# B5: AtFUT1 (Arabidopsis thaliana) (protein)
# chain: T1 sequence (Q9SWH5 84-558 limits assumed)
# B6: AtFUT1 (Arabidopsis thaliana; Y486F) (protein)
# chain: T1 sequence (Q9SWH5 84-558 limits assumed) with Y403F
# What was measured:
# AtFUT1 = biological target: T1, AtFUT1; assay: real-time 1H NMR of fucosylation; type: biochemical; settings: 0.4 mM XLLG, 0.4 mM GDP-Fuc, 4.7 μM enzyme, pH 6.8 in D2O, 25°C
# [1] = substrate: C[C@@H]1O[C@H](OP(=O)(O)OP(=O)(O)OC[C@H]2O[C@@H](n3cnc4c(=O)[nH]c(N)nc43)[C@H](O)[C@@H]2O)[C@@H](O)[C@H](O)[C@@H]1O; assay: GDP-Glo luminescent GDP release, Michaelis-Menten fit; type: biochemical, Arabidopsis thaliana; settings: donor varied, 750 μM XXLG, 75 mM HEPES pH 6.8, 28°C
molecule,measurement,setting,value
OC[C@H]1O[C@@H](O[C@H]2[C@@H](OC[C@H]3O[C@@H](O[C@H]4[C@H](O)[C@@H](O)[C@H](O[C@H]5[C@H](O)[C@@H](O)C(O)O[C@@H]5CO)O[C@@H]4CO[C@H]4OC[C@@H](O)[C@H](O)[C@H]4O[C@@H]4O[C@H](CO)[C@H](O)[C@H](O)[C@H]4O)[C@H](O)[C@@H](O)[C@@H]3O[C@@H]3O[C@H](CO[C@H]4OC[C@@H](O)[C@H](O)[C@H]4O)[C@@H](O)[C@H](O)[C@H]3O)OC[C@@H](O)[C@@H]2O)[C@H](O)[C@@H](O)[C@H]1O (stereo partly shown) [XLLG],real-time 1H NMR of fucosylation,AtFUT1,"The xyloglucan oligosaccharide XLLG (Figure 1a), composed of nine glycosyl residues"
B1,Km,[1],61.77 (±10.5) μM
same,kcat,[1],0.00533 ± 0.000283 s⁻¹
B2,Km,[1],55.33 (±6.7) μM
same,kcat,[1],0.00343 ± 0.000167 s⁻¹
B3,Km,[1],84.28 (±18.3) μM
same,kcat,[1],0.00123 ± 8.33e-05 s⁻¹
B4,Km,[1],40.1 (±7.5) μM
same,kcat,[1],0.00532 ± 0.000267 s⁻¹
B5,Km,[1],25.32 (±4.2) μM
same,kcat,[1],0.0633 ± 0.000833 s⁻¹
B6,Km,[1],60.44 (±12.3) μM
same,kcat,[1],0.0016 ± 0.0001 s⁻¹
